From patent US20230203098A1 (published 2023)
Values belong to the binder of their own block, whether it stands above or below them. *1 amine or outer side, *2 acyl side, *3 side chain or, on linkers, in order; H or OH if unused. Bridges are numbered along the chain shown (N, C = ends). Primed or numbered codes have the meaning given here. Where no end group is shown, it is not given here. [ ]: non-standard residue; d: D form. Tyr(Me) = COc1ccc(C[C@H](N[*:1])C(=O)[*:2])cc1; NMePhe(3-Cl) = CN[C@@H](Cc1cccc(Cl)c1)C(=O)O; NMeW = CN[C@@H](Cc1c[nH]c2ccccc12)C(=O)O; NMeY = CN[C@@H](Cc1ccc(O)cc1)C(=O)O; PEG11′ = not defined here; Aib = CC(C)(N)C(=O)O

What was measured:
[1] = molecular target: T1, human transferrin receptor (hTfR) (human, UniProt P02786 89-760, limits assumed); test: SPR, hTfR immobilised
T1 construct: hTfR solution immobilised on NTA chip (Ni capture plus EDC/NHS); also called human TfR
Method: (§1) An NTA sensor chip (Global Life Sciences Technologies Japan) was inserted in a Biacore T200 (Global Life Sciences Technologies Japan) and a prime operation was performed 3 times with a running buffer: 10 mM HEPES pH 8.0 (Nacalai Tesque), 150 mM NaCl (Nacalai Tesque), 0.05% Tween 20 (Nacalai Tesque), 0.1% BSA (Sigma-Aldrich), 1.0% DMSO (FUJIFILM Wako Pure Chemical) to create an Equilibration state at a flow rate of 30 µL/min. After reacting with 350 mM EDTA solution for 60 seconds at a flow rate of 10 µL/min then reacting with 0.5 mM NiCl₂ solution (Kishida Chemical) for 60 seconds at a flow rate of 10 µL/min, the NTA sensor chip was washed with 3 mM EDTA solution (Nacalai Tesque) for 60 seconds at a flow rate of 10 µL/min. After mixing 50 µL each of 60 mM EDC solution (Global Life Sciences Technologies Japan) and 650 mM NHS solution (Global Life Sciences Technologies Japan), the mixture was reacted for 420 seconds at a flow rate of 10 µL/min. By diluting with the running buffer, 150 µL of 3.2 µM hTfR solution was prepared and used for reaction for 600 seconds at a flow rate of 10 µL/min, thereby immobilizing hTfR on the NTA sensor chip. […] An obtained sensorgram was subjected to curve fitting using the least-squares method, and the binding of the peptide to hTfR was evaluated by obtaining KD values.

[2] = molecular target: T1, human transferrin receptor (hTfR); test: SPR according to Example 2
Method: (§2) For each of the various synthesized peptides, the intermolecular interaction of the peptide with the transferrin receptor (hTfR) was tested by surface plasmon resonance (SPR) according to the following method. The specific test method is as follows.
as §1, with “µL/min.” for “µL/min. By diluting with the running buffer, 150 µL of 3.2 µM hTfR solution was prepared and used for reaction for 600 seconds at a flow rate of 10 µL/min, thereby immobilizing hTfR on the NTA sensor chip.”

[3] = molecular target: T1, human transferrin receptor (hTfR); test: SPR in accordance with Example 2
Method: as §2
as §1, with “µL/min.” for “µL/min. By diluting with the running buffer, 150 µL of 3.2 µM hTfR solution was prepared and used for reaction for 600 seconds at a flow rate of 10 µL/min, thereby immobilizing hTfR on the NTA sensor chip.”

T1 sequence (P02786 89-760 limits assumed): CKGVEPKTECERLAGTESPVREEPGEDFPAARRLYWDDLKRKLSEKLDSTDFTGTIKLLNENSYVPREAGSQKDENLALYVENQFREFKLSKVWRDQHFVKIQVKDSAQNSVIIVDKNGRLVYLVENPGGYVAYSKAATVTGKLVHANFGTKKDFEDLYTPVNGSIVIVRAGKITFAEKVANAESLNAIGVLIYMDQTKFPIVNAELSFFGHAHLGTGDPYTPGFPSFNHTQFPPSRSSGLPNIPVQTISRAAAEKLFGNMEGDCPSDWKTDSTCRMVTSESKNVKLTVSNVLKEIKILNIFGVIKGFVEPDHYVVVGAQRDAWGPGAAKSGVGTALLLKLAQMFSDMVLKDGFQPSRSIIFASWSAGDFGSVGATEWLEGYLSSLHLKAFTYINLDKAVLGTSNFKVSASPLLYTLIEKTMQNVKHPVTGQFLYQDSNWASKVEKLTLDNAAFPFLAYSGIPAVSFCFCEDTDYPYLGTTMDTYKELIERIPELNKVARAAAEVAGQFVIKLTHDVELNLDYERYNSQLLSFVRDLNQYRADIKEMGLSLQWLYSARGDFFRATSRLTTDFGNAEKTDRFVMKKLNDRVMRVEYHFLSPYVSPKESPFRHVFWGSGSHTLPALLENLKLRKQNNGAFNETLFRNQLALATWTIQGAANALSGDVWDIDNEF

- binding result [1]: no binding
B1: FLIP_000894_PEG11_K_FITC (peptide)
peptide: {CH2CO}-A[NMeY]YRRIIYYNWVFVC-{PEG11′-K(FITC)}
modifications: thioether N-15

- binding result [2]: no binding
B2: hTfRNo.894FLIP-vivotag750 (peptide)
peptide: {CH2CO}-A[NMeY]YRRIIYYNWVFVC-{PEG11′-VivoTag750}
modifications: thioether N-15 (inferred); not fully specified; printed as ClAc-Ala-MeTyr-Tyr-Arg-Arg-Ile-Ile-Tyr-Tyr-Asn-Trp-Val-Phe-Val-Cys
notes: also called hTfRNo.894FLIP-PEG11-Vivotag750

- binding result [1]: no binding
B5: Flip_894_PEG4_KFITC (peptide)
peptide: {CH2CO}-A[NMeY]F[dR][Aib]IY[Tyr(Me)]YN[NMeW]V[NMePhe(3-Cl)]VC
modifications: thioether N-15; not fully specified (C-terminus); also: PEG4c not defined
notes: also called Flip894_variant61_PEG4dk5FAM; Flip894_variant61_PEG4dk5FA

Second part, the binder before the results:

B3: hTfR_000894_PEG11_(VivoTag) (peptide)
peptide: {CH2CO}-AVFVWNYYIIRRY[NMeY]C
modifications: thioether N-15; not fully specified (C-terminus); also: linker PEG11 in text, PEG12 in table
notes: also called hTfRNo.894-vivotag750; hTfRNo.894-PEG11-Vivotag750
- Kd [2]: 1.09 nM

B4: JCR_hTfR_000894_PEG11_K(FITC) (peptide)
peptide: AVFVWNYYIIRRYYC
modifications: 14 MeTyr; C-term PEG11-K(FITC); cyclic 1-15 thioether
- Kd [3]: 0.28 nM
